In patent EP4349860A1 (Fundació Institut Hospital Del Mar D'Investigacions …, dated 2024):
Read-outs that look alike come from different tables or passages of the source.

Columns and labels:
[1] = molecular target: T1, SARS-CoV-2 spike protein, Omicron BA.2 variant, on pseudovirus (SARS-CoV-2 (Omicron BA.2 variant)); experiment: cell-based or functional assay
[2] = molecular target: T2, SARS-CoV-2 spike protein, Delta (B.1.617.2) variant, on pseudovirus (SARS-CoV-2 (Delta variant)); experiment: cell-based or functional assay
[3] = molecular target: T3, SARS-CoV-2 spike protein, Gamma (P.1) variant, on pseudovirus (SARS-CoV-2 (Gamma variant)); experiment: cell-based or functional assay
[4] = molecular target: SARS-CoV-2 spike protein, Omicron BA.4/BA.5 variants, on pseudovirus (SARS-CoV-2 (Omicron BA.4/BA.5 variants)); experiment: cell-based or functional assay
[5] = molecular target: T4, SARS-CoV-2 spike protein, Alpha (B.1.1.7) variant, on pseudovirus (SARS-CoV-2 (Alpha variant)); experiment: cell-based or functional assay
[6] = molecular target: T5, SARS-CoV-2 spike protein, Beta (B.1.351) variant, on pseudovirus (SARS-CoV-2 (Beta variant)); experiment: cell-based or functional assay
[7] = molecular target: T1, SARS-CoV-2 spike protein, Omicron BA.2 …; experiment: cell-based or functional assay; remark: listed apart in the source
[8] = molecular target: T2, SARS-CoV-2 spike protein, Delta …; experiment: cell-based or functional assay; remark: listed apart in the source
[9] = molecular target: T3, SARS-CoV-2 spike protein, Gamma (P.1) …; experiment: cell-based or functional assay; remark: listed apart in the source
[10] = molecular target: T4, SARS-CoV-2 spike protein, Alpha …; experiment: cell-based or functional assay; remark: listed apart in the source
[11] = molecular target: T5, SARS-CoV-2 spike protein, Beta …; experiment: cell-based or functional assay; remark: listed apart in the source
[12] = molecular target: SARS-CoV-2 spike protein, Mu (B.1.621) variant, on pseudovirus (SARS-CoV-2 (Mu variant)); experiment: cell-based or functional assay
[13] = molecular target: T6, RBD of the SARS-CoV-2 spike protein, Gamma (P.1) variant (SARS-CoV-2 (Gamma variant), UniProt P0DTC2 319-541); experiment: ELISA, plate coated with RBD at 2 µg/ml, anti-human IgG-HRP detection
T6 construct: domain: RBD

[14] = molecular target: T7, RBD of the SARS-CoV-2 spike protein, Delta (B.1.617.2) variant (SARS-CoV-2 (Delta variant), UniProt P0DTC2 319-541); experiment: as above
T7 construct: domain: RBD

[15] = molecular target: T8, RBD of the SARS-CoV-2 spike protein, Beta (B.1.351) variant (SARS-CoV-2 (Beta variant), UniProt P0DTC2 319-541); experiment: as above
T8 construct: domain: RBD

B1: mAb17T2 (antibody, V domains shown)
VH: QVQLVQSGPEVKKPGTSVKVSCKAPVFTFSISAVQWVRQARGQRLEWIGWIVVGSGNTNYAQNFQERVTITTDMSTGTVYMELSGLRSEDTAMYYCAAPYCNRTTCYDGFDLWGQGTMVTVSS
VL: EIVLTQSPGTLSLSPGERATLSCRASQSISSNYLAWYQQKPGQAPRLLIYGASSRATGIPDRFSGSGSGTDFTLSINRLEPEDFAMYYCQHYGGLSRWTFGQGTKVEIKR
fold neutralizing activity compared to S2E12 [1]: 13.5 fold | fold neutralizing activity compared to S309 [1]: 41 fold | IC50 (µg/ml), pseudotyped virus neutralization [2]: 0.0096 µg/mL | IC50 (µg/ml), pseudotyped virus neutralization [3]: 0.0083 µg/mL | IC50 (µg/ml), pseudotyped virus neutralization [4]: 0.00203 µg/mL | IC50 (µg/ml), pseudotyped virus neutralization [5]: 0.0069 µg/mL | IC50 (µg/ml), pseudotyped virus neutralization [6]: 0.0027 µg/mL | IC50 (µg/ml), pseudotyped virus neutralization [7]: 0.0101 µg/mL | IC50 (µg/ml), pseudotyped virus neutralization [8]: 0.0105 µg/mL | IC80 (µg/ml), pseudotyped virus neutralization [8]: 0.0165 µg/mL | IC90 (µg/ml), pseudotyped virus neutralization [8]: 0.0215 µg/mL | IC50 (µg/ml), pseudotyped virus neutralization [9]: 0.0126 µg/mL | IC80 (µg/ml), pseudotyped virus neutralization [9]: 0.0218 µg/mL | IC90 (µg/ml), pseudotyped virus neutralization [9]: 0.0302 µg/mL | IC50 (µg/ml), pseudotyped virus neutralization [10]: 0.00666 µg/mL | IC80 (µg/ml), pseudotyped virus neutralization [10]: 0.014 µg/mL | IC90 (µg/ml), pseudotyped virus neutralization [10]: 0.0216 µg/mL | IC50 (µg/ml), pseudotyped virus neutralization [11]: 0.0022 µg/mL | IC80 (µg/ml), pseudotyped virus neutralization [11]: 0.00481 µg/mL | IC90 (µg/ml), pseudotyped virus neutralization [11]: 0.0076 µg/mL | IC50 (µg/ml), pseudotyped virus neutralization [12]: 0.00907 µg/mL | IC80 (µg/ml), pseudotyped virus neutralization [12]: 0.014 µg/mL | IC90 (µg/ml), pseudotyped virus neutralization [12]: 0.0181 µg/mL | EC50 [13]: 3.08 ng/mL | EC50 [14]: 3.38 ng/mL | EC50 [15]: 3.76 ng/mL
